T1: mouse FcγRIII extracellular domain, C-terminally His-tagged (mouse, UniProt P08508 31-215)
T1 construct: the whole entry is named; also called mFcγRIII; mFcgRIII
T1 chain: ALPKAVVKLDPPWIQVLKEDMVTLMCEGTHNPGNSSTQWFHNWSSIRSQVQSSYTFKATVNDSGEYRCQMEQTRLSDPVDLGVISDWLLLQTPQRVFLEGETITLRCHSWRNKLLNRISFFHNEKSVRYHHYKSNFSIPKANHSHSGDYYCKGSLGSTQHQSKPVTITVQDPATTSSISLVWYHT

T2: mouse FcγRII extracellular domain, C-terminally His-tagged (mouse, UniProt P08101 30-210)
T2 construct: the whole entry is named; also called mFcγRII; mFcgRII
T2 sequence: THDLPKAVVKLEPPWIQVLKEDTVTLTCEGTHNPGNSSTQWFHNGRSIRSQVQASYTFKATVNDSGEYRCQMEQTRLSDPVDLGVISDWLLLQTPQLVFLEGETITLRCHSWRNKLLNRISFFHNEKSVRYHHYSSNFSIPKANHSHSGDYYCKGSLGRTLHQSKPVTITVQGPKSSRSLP


Experiments:
[1] = biological target: T1, mouse FcγRIII extracellular domain, …; test: SPR Biacore T200, KD ratio
Procedure: (§1) Each altered antibody was analyzed for its interaction with each Fcγ receptor prepared above using Biacore T100 (GE Healthcare Japan Corp.), Biacore T200 (GE Healthcare Japan Corp.), Biacore A100, or Biacore 4000. The running buffer used was HBS-EP+ (GE Healthcare Japan Corp.). The assay temperature was set to 25° C. The sensor chips used were chips prepared by immobilizing Protein L (ACTIGEN or BioVision) onto Series S Sensor Chip CM5 (GE Healthcare Japan Corp.) or Series S Sensor Chip CM4 (GE Healthcare Japan Corp.) by the amine coupling method.
(§2) In order to calculate the KD value of each altered antibody for FcγR, kinetic analysis was conducted according to the following method: first, the antibody of interest was captured onto any of these chips and allowed to interact with mFcγR diluted with a running buffer. For the obtained sensorgram, the assay results were globally fit into the 1:1 Langmuir binding model using Biacore Evaluation Software to calculate an association rate constant ka (L/mol/s) and a dissociation rate constant kd (1/s). From these values, the dissociation constant KD (mol/L) was calculated.

[2] = biological target: T2, mouse FcγRII extracellular domain, …; test: SPR Biacore T200, KD ratio
Procedure: as §1, §2

Binder	relative mFcγRIII-binding activity (mIgG1 = 1) [1] [fold]	relative mFcγRII-binding activity (mIgG1 = 1) [2] [fold]
H237-MB624/MRAL-k0 (antibody, mouse IgG1, kappa, copies: 2 + 2) heavy: QVQLQESGPGLVKPSETLSLTCAVSGHSISHDHAWSWVRQPPGEGLEWIGFISYSGITNYNPSLQGRVTISRDNSKNTLYLQMNSLRAEDTAVYYCARSLARTTAMDYWGEGTLVTVSSAKTTPPSVYPLAPGSAAQTNSMVTLGCLVKGYFPEPVTVTWNSGSLSSGVHTFPAVLQSDLYTLSSSVTVPSSTWPSETVTCNVAHPASSTKVDKKIVPRDCGCKPCICEDYEVELVFIFPPKPKDVLTITLTPKVTCVVVDISKDDPEVQFSWFVDDVEVHTAQTQPREEQFNSTFRSVSELPIMHQDWLNGKEFKCRVNSAAFPAPIEKTISKTKGRPKAPQVYTIPPPKEQMAKDKVSLTCMITDFFPEDITVEWQWNGQPAENYKNTQPIMDTDGSYFVYSKLNVQKSNWEAGNTFTCSVLHEGLHNHHTEKSLSHSPGK light: not shown	0.1	0.8
H237-MB625/MRAL-k0 (antibody, mouse IgG1, kappa, copies: 2 + 2) heavy: QVQLQESGPGLVKPSETLSLTCAVSGHSISHDHAWSWVRQPPGEGLEWIGFISYSGITNYNPSLQGRVTISRDNSKNTLYLQMNSLRAEDTAVYYCARSLARTTAMDYWGEGTLVTVSSAKTTPPSVYPLAPGSAAQTNSMVTLGCLVKGYFPEPVTVTWNSGSLSSGVHTFPAVLQSDLYTLSSSVTVPSSTWPSETVTCNVAHPASSTKVDKKIVPRDCGCKPCICENYEVELVFIFPPKPKDVLTITLTPKVTCVVVDISKDDPEVQFSWFVDDVEVHTAQTQPREEQFNSTFRSVSELPIMHQDWLNGKEFKCRVNSAAFPAPIEKTISKTKGRPKAPQVYTIPPPKEQMAKDKVSLTCMITDFFPEDITVEWQWNGQPAENYKNTQPIMDTDGSYFVYSKLNVQKSNWEAGNTFTCSVLHEGLHNHHTEKSLSHSPGK light: not shown	0.12	0.67
H237-MB626/MRAL-k0 (antibody, mouse IgG1, kappa, copies: 2 + 2) heavy: QVQLQESGPGLVKPSETLSLTCAVSGHSISHDHAWSWVRQPPGEGLEWIGFISYSGITNYNPSLQGRVTISRDNSKNTLYLQMNSLRAEDTAVYYCARSLARTTAMDYWGEGTLVTVSSAKTTPPSVYPLAPGSAAQTNSMVTLGCLVKGYFPEPVTVTWNSGSLSSGVHTFPAVLQSDLYTLSSSVTVPSSTWPSETVTCNVAHPASSTKVDKKIVPRDCGCKPCICETYEVELVFIFPPKPKDVLTITLTPKVTCVVVDISKDDPEVQFSWFVDDVEVHTAQTQPREEQFNSTFRSVSELPIMHQDWLNGKEFKCRVNSAAFPAPIEKTISKTKGRPKAPQVYTIPPPKEQMAKDKVSLTCMITDFFPEDITVEWQWNGQPAENYKNTQPIMDTDGSYFVYSKLNVQKSNWEAGNTFTCSVLHEGLHNHHTEKSLSHSPGK light: not shown	0.12	0.81
H237-MB627/MRAL-k0 (antibody, mouse IgG1, kappa, copies: 2 + 2) heavy: QVQLQESGPGLVKPSETLSLTCAVSGHSISHDHAWSWVRQPPGEGLEWIGFISYSGITNYNPSLQGRVTISRDNSKNTLYLQMNSLRAEDTAVYYCARSLARTTAMDYWGEGTLVTVSSAKTTPPSVYPLAPGSAAQTNSMVTLGCLVKGYFPEPVTVTWNSGSLSSGVHTFPAVLQSDLYTLSSSVTVPSSTWPSETVTCNVAHPASSTKVDKKIVPRDCGCKPCICEVYEVELVFIFPPKPKDVLTITLTPKVTCVVVDISKDDPEVQFSWFVDDVEVHTAQTQPREEQFNSTFRSVSELPIMHQDWLNGKEFKCRVNSAAFPAPIEKTISKTKGRPKAPQVYTIPPPKEQMAKDKVSLTCMITDFFPEDITVEWQWNGQPAENYKNTQPIMDTDGSYFVYSKLNVQKSNWEAGNTFTCSVLHEGLHNHHTEKSLSHSPGK light: not shown	0.09	0.32
H237-MB628/MRAL-k0 (antibody, mouse IgG1, kappa, copies: 2 + 2) heavy: QVQLQESGPGLVKPSETLSLTCAVSGHSISHDHAWSWVRQPPGEGLEWIGFISYSGITNYNPSLQGRVTISRDNSKNTLYLQMNSLRAEDTAVYYCARSLARTTAMDYWGEGTLVTVSSAKTTPPSVYPLAPGSAAQTNSMVTLGCLVKGYFPEPVTVTWNSGSLSSGVHTFPAVLQSDLYTLSSSVTVPSSTWPSETVTCNVAHPASSTKVDKKIVPRDCGCKPCICEPAEVELVFIFPPKPKDVLTITLTPKVTCVVVDISKDDPEVQFSWFVDDVEVHTAQTQPREEQFNSTFRSVSELPIMHQDWLNGKEFKCRVNSAAFPAPIEKTISKTKGRPKAPQVYTIPPPKEQMAKDKVSLTCMITDFFPEDITVEWQWNGQPAENYKNTQPIMDTDGSYFVYSKLNVQKSNWEAGNTFTCSVLHEGLHNHHTEKSLSHSPGK light: not shown	0.06	2.2
H237-MB629/MRAL-k0 (antibody, mouse IgG1, kappa, copies: 2 + 2) heavy: QVQLQESGPGLVKPSETLSLTCAVSGHSISHDHAWSWVRQPPGEGLEWIGFISYSGITNYNPSLQGRVTISRDNSKNTLYLQMNSLRAEDTAVYYCARSLARTTAMDYWGEGTLVTVSSAKTTPPSVYPLAPGSAAQTNSMVTLGCLVKGYFPEPVTVTWNSGSLSSGVHTFPAVLQSDLYTLSSSVTVPSSTWPSETVTCNVAHPASSTKVDKKIVPRDCGCKPCICIPAEVELVFIFPPKPKDVLTITLTPKVTCVVVDISKDDPEVQFSWFVDDVEVHTAQTQPREEQFNSTFRSVSELPIMHQDWLNGKEFKCRVNSAAFPAPIEKTISKTKGRPKAPQVYTIPPPKEQMAKDKVSLTCMITDFFPEDITVEWQWNGQPAENYKNTQPIMDTDGSYFVYSKLNVQKSNWEAGNTFTCSVLHEGLHNHHTEKSLSHSPGK light: not shown	0.04	0.38
H237-MB630/MRAL-k0 (antibody, mouse IgG1, kappa, copies: 2 + 2) heavy: QVQLQESGPGLVKPSETLSLTCAVSGHSISHDHAWSWVRQPPGEGLEWIGFISYSGITNYNPSLQGRVTISRDNSKNTLYLQMNSLRAEDTAVYYCARSLARTTAMDYWGEGTLVTVSSAKTTPPSVYPLAPGSAAQTNSMVTLGCLVKGYFPEPVTVTWNSGSLSSGVHTFPAVLQSDLYTLSSSVTVPSSTWPSETVTCNVAHPASSTKVDKKIVPRDCGCKPCICEPNEVELVFIFPPKPKDVLTITLTPKVTCVVVDISKDDPEVQFSWFVDDVEVHTAQTQPREEQFNSTFRSVSELPIMHQDWLNGKEFKCRVNSAAFPAPIEKTISKTKGRPKAPQVYTIPPPKEQMAKDKVSLTCMITDFFPEDITVEWQWNGQPAENYKNTQPIMDTDGSYFVYSKLNVQKSNWEAGNTFTCSVLHEGLHNHHTEKSLSHSPGK light: not shown	0.25	14.3
H237-MB631/MRAL-k0 (antibody, mouse IgG1, kappa, copies: 2 + 2) heavy: QVQLQESGPGLVKPSETLSLTCAVSGHSISHDHAWSWVRQPPGEGLEWIGFISYSGITNYNPSLQGRVTISRDNSKNTLYLQMNSLRAEDTAVYYCARSLARTTAMDYWGEGTLVTVSSAKTTPPSVYPLAPGSAAQTNSMVTLGCLVKGYFPEPVTVTWNSGSLSSGVHTFPAVLQSDLYTLSSSVTVPSSTWPSETVTCNVAHPASSTKVDKKIVPRDCGCKPCICQPNEVELVFIFPPKPKDVLTITLTPKVTCVVVDISKDDPEVQFSWFVDDVEVHTAQTQPREEQFNSTFRSVSELPIMHQDWLNGKEFKCRVNSAAFPAPIEKTISKTKGRPKAPQVYTIPPPKEQMAKDKVSLTCMITDFFPEDITVEWQWNGQPAENYKNTQPIMDTDGSYFVYSKLNVQKSNWEAGNTFTCSVLHEGLHNHHTEKSLSHSPGK light: not shown	0.28	4.29
H237-MB632/MRAL-k0 (antibody, mouse IgG1, kappa, copies: 2 + 2) heavy: QVQLQESGPGLVKPSETLSLTCAVSGHSISHDHAWSWVRQPPGEGLEWIGFISYSGITNYNPSLQGRVTISRDNSKNTLYLQMNSLRAEDTAVYYCARSLARTTAMDYWGEGTLVTVSSAKTTPPSVYPLAPGSAAQTNSMVTLGCLVKGYFPEPVTVTWNSGSLSSGVHTFPAVLQSDLYTLSSSVTVPSSTWPSETVTCNVAHPASSTKVDKKIVPRDCGCKPCICEAYEVENVFIFPPKPKDVLTITLTPKVTCVVVDISKDDPEVQFSWFVDDVEVHTAQTQPREEQFNSTFRSVSELPIMHQDWLNGKEFKCRVNSAAFPAPIEKTISKTKGRPKAPQVYTIPPPKEQMAKDKVSLTCMITDFFPEDITVEWQWNGQPAENYKNTQPIMDTDGSYFVYSKLNVQKSNWEAGNTFTCSVLHEGLHNHHTEKSLSHSPGK light: not shown	0.18	3.64
H237-MB633/MRAL-k0 (antibody, mouse IgG1, kappa, copies: 2 + 2) heavy: QVQLQESGPGLVKPSETLSLTCAVSGHSISHDHAWSWVRQPPGEGLEWIGFISYSGITNYNPSLQGRVTISRDNSKNTLYLQMNSLRAEDTAVYYCARSLARTTAMDYWGEGTLVTVSSAKTTPPSVYPLAPGSAAQTNSMVTLGCLVKGYFPEPVTVTWNSGSLSSGVHTFPAVLQSDLYTLSSSVTVPSSTWPSETVTCNVAHPASSTKVDKKIVPRDCGCKPCICEDYEVENVFIFPPKPKDVLTITLTPKVTCVVVDISKDDPEVQFSWFVDDVEVHTAQTQPREEQFNSTFRSVSELPIMHQDWLNGKEFKCRVNSAAFPAPIEKTISKTKGRPKAPQVYTIPPPKEQMAKDKVSLTCMITDFFPEDITVEWQWNGQPAENYKNTQPIMDTDGSYFVYSKLNVQKSNWEAGNTFTCSVLHEGLHNHHTEKSLSHSPGK light: not shown	0.17	2.77
